Target: BG505 SOSIP.664
Assay: BLI

Kd: 34.8 nM
koff: 0.00085 s⁻¹
B1: PGT122 Fab (Fab, V domains shown)
VH: QVHLQESGPGLVKPSETLSLTCNVSGTLVRDNYWSWIRQPLGKQPEWIGYVHDSGDTNYNPSLKSRVHLSLDKSKNLVSLRLTGVTAADSAIYYCATTKHGRRIYGVVAFKEWFTYFYMDVWGKGTSVTVSS
VL: APTFVSVAPGQTARITCGEESLGSRSVIWYQQRPGQAPSLIIYNNNDRPSGIPDRFSGSPGSTFGTTATLTITSVEAGDEADYYCHIWDSRRPTNWVFGEGTTLIVL

From article PMC5955915 (2018)
